Experiments:
[1] = biological target: T1, MEK2 phosphorylation of ERK2 (Mus musculus, UniProt P63085, K52R); assay: Kinase assay: MEK2 phosphorylation of ERK2 with docking domain peptides; assay type: biochemical, human (MEK2)
T1 construct: purchased New England Biolabs (ERK2 K52R); Upstate Biotechnology (MEK2)
Description: The following experiment was done to investigate whether docking domain peptides could inhibit MEK2 phosphorylation of ERK2. […] An autoradiogram of a representative experiment is shown (see FIG. 2A). The results were plotted as percent phoshphorylation relative to that observed in the absence of any added peptide (see FIG. 2B). ERK2 phosphorylation was analyzed by SDS-PAGE and quantified. Data are the average of two to four experiments, with triplicate data points in each experiment.
ERK2 and peptide were pre-incubated in buffer for 10 min at 37° C., then returned to ice prior to the addition of ATP and MEK2. Reactions were for 20 min at 30° C. ERK2 phosphorylation was quantified by SDS-PAGE followed by analysis of relative incorporation using a Phosphorlmager™ (Molecular Dynamics, Inc.).

MEK2 binding to GST-ERK2 = biological target: T2, MEK2 binding to GST-ERK2 (Mus musculus, UniProt P63085); assay: GST co-sedimentation (pull-down) assay of 35S-MEK2 binding to GST-ERK2; conditions: 25 μM or 100 μM peptide
T2 construct: made in house; host or cells: MEK2 by in vitro translation
Description: The purpose of the following experiment is to assess whether MAPK docking domain peptides would inhibit MEK2-binding to GST-ERK2. Radiolabeled (^35S) MEK2 and MEK2Δ4-16 proteins (˜1 pmol) were prepared by in vitro translation, partially purified by ammonium sulfate precipitation, and then incubated with 10 μg of purified GST or GST-ERK2 pre-bound to glutathione-Sepharose beads, in the absence or presence of the specified concentrations of docking domain peptides (Ste7, MEK1, MEK2, Elk-1) or mutant forms of docking domain peptides (scram7, MEK2EEAA, ElkEEG). Bead-bound protein complexes were isolated by sedimentation and resolved on 12% SDS-polyacrylamide gels. An autoradiogram of a representative experiment is illustrated (see FIG. 5A). Gels were analyzed by staining with Coomassie Blue for visualization of the bound GST fusion protein in order to verify equal amounts in each reaction and by autoradiography for visualization of the bound radiolabeled MEK2 or MEK2Δ4-16 to GST or GST-ERK2 in the absence of peptide (hatched bars), or in the presence of 25 μM (light gray bars) or 100 μM peptide (dark gray bars) (see FIG. 5B). Data are the average of three to five experiments; standard error bars are shown.
The constructs and methods used in the GST co-sedimentation (“pull-down”) experiments shown in FIG. 5 have been described elsewhere (Bardwell et al., 2001). […]

[2] = biological target: T3, MKP-1 dephosphorylation of ERK2 (Mus musculus, UniProt P63085); assay: Phosphatase assay: MKP-1 dephosphorylation of ERK2 with docking domain peptides; assay type: biochemical, human (MKP-1); conditions: western blot with anti-phospho-ERK2
T3 construct: purchased Upstate Biotechnology (MKP-1); no vendor is printed for the active ERK2 in this assay
Description: The following experiment was performed to assess whether MAPK-docking domain peptides would inhibit dephosphorylation of ERK2 by MKP-1. Purified, full-length, activated ERK2 (0.5 pmol) was incubated with 0.5 units of purified active MKP-1 for 20 min, in the absence or presence of the specified concentrations of the indicated peptides. ERK2 dephosphoryation was quantified by SDS-PAGE followed by western blotting and immonostaining with anti-phospho-ERK2 (Thr202/Tyr204). The lanes corresponding to ERK2 with no MKP-1 or no added peptide contain 50% of the relative amounts loaded in all other lanes (see FIG. 4A).
Phosphatase reactions (20 μl) for MKP-1 dephosphorylation of ERK2 contained 50 mM Tris-HCl (pH 7.5), 50 mM NaCl, 0.5 pmol active mouse ERK2, 0.5 units active human MKP-1 (Upstate Biotechnology) and the indicated concentration of peptide. Reactions were for 30 min. at 30° C. Reactions were analyzed by SDS-PAGE followed by western transfer and immunostaining with anti-phospho-ERK2 (Thr202/Tyro204) antibody (New England Biolabs).

Compound: CC[C@H](C)[C@H](NC(=O)[C@@H]1CCCN1C(=O)[C@@H](NC(=O)[C@@H]1CCCN1C(=O)[C@H](CCCCN)NC(=O)[C@H](CCCCN)NC(=O)[C@H](CCCCN)NC(=O)[C@@H]1CCCN1C(=O)[C@@H](N)CCSC)[C@@H](C)O)C(=O)N[C@@H](CCC(N)=O)C(=O)N[C@@H](CC(C)C)C(=O)N[C@@H](CC(N)=O)C(=O)N1CCC[C@H]1C(=O)N[C@@H](C)C(=O)N1CCC[C@H]1C(=O)N[C@@H](CC(=O)O)C(=O)NCC(=O)O [MEK1, MPKKKPTPIQLNPAPDG]
- IC50 ([1]; 1 μM inactive ERK2, 0.1 units active MEK2, 20 min, read-out: IC50 for inhibition of MEK2 phosphorylation of ERK2): ~100 µM

Compound: KGRKPRDLELPLSPS [Elk-1, docking domain peptide from Elk-1 residues 312-326]
- inhibition of MEK2 protein co-sedimentation with GST-ERK2 (in words) (MEK2 binding to GST-ERK2): inhibited
- inhibition of MKP-1 mediated dephosphorylation of phospho-ERK2 (in words) [2]: dose-dependent inhibition

Compound: MLAEEKPVLPAATANPTIAE [MEK2 mutant peptide, MEK2 peptide with mutations in basic and hydrophobic residues]
- inhibition of ERK2 phosphorylation by MEK2 (in words) ([1]; peptide titrated into MEK2 kinase assay): did not inhibit
